Assay results taken from the NTF2 design screens of Basanta et al. (2020).

Assay: protease stability score; higher = more stable; yeast display proteolysis, trypsin and chymotrypsin;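 also: log10 excess protease needed over predicted unfolded state with 0 meaning unfolded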
Sequence “DEDAQKQVEKMLQAVREGDDRQIKRLFDPNAEINVGDKHVTGREQATKEMSKRKKEMDIDIKIEEVQVKGDRVELKAVVLENKNGDPQTFHVRAVYHAHNGKIRTNNVEKDG” has a protease stability score of -0.074. With “DEDAQKRAEEMMHALQNGDEKQIQTLFDKDAKVNVGDKEYHGKEQLAHDLKRRHDKIRVDYKDVHIRAHGDKVSLTFRVRVKINGVPADNSFQFTLKFRNGHVQSMSQQFDPKYEQDQRN” the protease stability score was -0.033. For “DEDAQKTVRKFLENITTGNPENAEKLLDPNVHIHYGDKRVSGRDQFHREAKQKLHDMRLSIDIKEVQVQGNRIDVDVRFSVNHNGRPYTITAHLSIEMSNGHIEHMELRIDESDKRRQKR”, the protease stability score was -0.237. Work on “DEDAQRQVEELLKAEHEGDPKKFQELADPNVNAIYGDKRVHGRETLADQLAERVREMRVHYDSIDLRVRGNKVNVHINAKFKYNGVPIEISMTVVFVFHNGRLQRREVSIPEEVQTELTR” yielded a protease stability score of 0.129. “DEDAQTQVEKMLKNMQRGDNQEVNKMFDKNVEFRVGDRDIHGREEYARQVSREHKESRVEFRHIHARVKGDHVRIRVDVVRQVNGKPQRMTVEFEVQAHNGKIKRFQVEFDPDEERRVQK” gave a protease stability score of 0.196. With “DEDARKLAEELLKAQETGDPKTLKRLVDPNVKVDVGDKTFHGMDEINEEVTRTKRRQRVKIDRVSIHVRGDSVVIHVTEKNEKDGQPSSRQYVQEMRVTNGHVVEMKQNKSR” the protease stability score was -0.468. “DEDARKQAQRWITNLNNGNEKEVSKQFDPNARMDVGNRDVHGTEQLLQKLRTRLKQARQSIELRDIDRQGDNLQLDVRMEFVHNGQPDDVRFTVQMNYHNGKIKRANWRIPEEDQKKLER” gave a protease stability score of 0.165. “DEDARRKVEEFMDLMRNNNPEELAKLADPNATVHYGDKVVHGREQAMEWWKKFLTELRVDIKSVSIRVSGNKIDVEVDMIVQVNGRPVTLNWRFSFNFNNGKIEQIHVHISEEQQERIHS” showed a protease stability score of 0.68. In the case of “DEDARRRVHEFFEAIENNDREKLKELADPNVQANYGDKQVRGREQLAEWVDKLHKELRVHFRLKSLDNRGDKIEIRMRVILDINGRPQTQDVTMEMRFHNGRIKHVQVHVDERQLKQKKK”, the protease stability score is reported as 0.942. For “DEDARSNFQELLKALQTGDERLFEKNVDPNVTFRYGDKTLTGRHHIMEQLRRDKENSRQDFDVKEWHFHGNRIDVKAQLRFEKNGKPDTVDVNLVAIAHNGRIQEIQIDVQK”, the protease stability score was -0.278. Work on “DEDASKELQRLARENDFKRIAELADENASAQIGDNVWHGREKILTNLKRMQDQVDHQRIHSIRTHGNKLRVTVRMVVNGRDFTFRFVIEVENGRVVSIDIKATSEKDKKKMNEVIG” yielded a protease stability score of -0.158. With “DEDASKQVEDFERALKTGDENRLHELMDKDARVEVGDKRYHGRKQIARQQVQHYEEMRVDLHVQDIDVQGDKIKVDVTRQIEVNGKPISNRIIIYVTIHNGKIQRMDVDVPDEDMDKIEK” the protease stability score was 0.769. “DEDASRHVRDMIRALQTGDRDKVARYIDPNATMQVGDKRYHGNERIKEQVKRTKDTMRYHMEIKDVHVEGDHIKVDFTFSNNKNGTPTSDRAQIDIRMTNGHATSIVLHNNK” showed a protease stability score of -0.001. Work on “DEDASRRMIEMVENLQTGNEEEFKKYVDPNVRIEYGDKRVSGRDQATKWWRSEFTEIRFSMRVQSYSVDGNKVDITVRATFDHNGKPEDKKYKLDIQLHNGHIKKLEITDDS” yielded a protease stability score of 1.31. “DEDATDNVRQWFEARNQNDENRLMQLVDPNAKIQVGDKFVHGKEDLEKQVKREKDQIHLHMKDMKFTDTGDTVKVRIDYRDEHNGRPKEDRMVAYATVHNGRIENLEVDSDR” gave a protease stability score of -0.179. Work on “DEDAVKAYERLLTAWNHGDPDQAKHQVDPNVRVQVGDKQIHGREELARQIERRRREANIHNQLEDYRDNGEEIQLHVEVTEDHNGNPDTKTYTAYAQFTNGKMQELTINDHG” yielded a protease stability score of -0.219. Sequence “DEDAVKLAQEVWKAMHTGDEDKFVKLVDPNARVKIGDKDIHGKDDIKKQLHNRNREIRVRLKHIEIDQNGDQARIHMRFQMTHDGQPRDQSATATMRAQGDKLKSISVTNHG” has a protease stability score of -0.206. Sequence “DEDAVKLFHNVQHVIEQGDKDKAVKNFDPNASAKVGDKEVHGMEDWVRTLVKEASQLRIDLKWDDYRVHGDKINMNIELNKEHNGHPSTTRMHIDAHVHNGRVKFVAYNRRP” has a protease stability score of 0.066. In the case of “DEDAVKSASNAAQHGDFVRMAEEMRDNPEARYGDKDVRGREEVIRVVRILMEQVDSVKVKRVRVHGEKVTADLKFRVNGREFHANAVVVMDNGRFVKLVLHFTDSDFKHELHKRLE”, the protease stability score is reported as 1.17. “DEDAVKVAEKFVEVEETGSEDDFKRLADKDAKIRVGENHVHGRESLLDELRKRRKQINIVIHHVRAEDRGDKVDVEIEAVDERNGKPNQYNVKFKVKMHNGRVKQIDRDRDR” gave a protease stability score of 0.168. In the case of “DEDAVNRYEEFVENLKSNNEHKLSEYLDPNVRLVIGDKTLHGKDNFRRRVRHMTKHMRLQLNYKDLKVQGEEIHVHADVRQTHDGKPQNTHFSASMRVNGDKAKEITIKDDG”, the protease stability score is reported as 0.207. Sequence “DEDAVRKAIELFKQQETGNPEEVKKLADPNARMVVGDKTFTGMDTINEHLRKLRKEARIRNDIKRYEVNGDKATIEFRQERDHNGRPDTHLVKITIKVTNGRVKVIEIQDKS” has a protease stability score of 0.175. In the case of “DEDAVRKAKQWVKALRDGDEDELREQVDPNARINVGDKTFHGMDEFVKDVLKTHSEQRVNFDIKSVNASNGRVDMKMDATFDINGEPKTFSLVLTVDFHNGRAKQLEVKFDPKVKEDLTK”, the protease stability score is reported as 0.769. For “DEDAVRLAHKFQDVLNKGDPDKAMRLADPNARVQIGDTEIRGREQLSHHVNEMSNSIRFDLKHVDAQTRGDHVDVRVDQINEVDGRPTRNTDKMTIQIKNGKIVNVNVRVDEDRKQQERD”, the protease stability score was -0.632. For “DEDAVRNASTMVEAERRGDENTIQKMMDKHATVKYGDTEVHGREDAARQIRKTHREIRIQVDHYTVEAHNGRVRVEIRVVVNVNGTPYEYHYDYYAEVHNGKFKHIEINVDPDLEDKLKK”, the protease stability score was -0.16. For “DEDAVRRVKDMIRNLKSGNPDDAARYADPNARFDIGDWHIDGRKQLVKKLRDITRHMRYKFEMRSVDVTGNKLKFKATAHVSVNGRPITYHMTASIIVHNGHVTHVDQQLPEELLKRIEQ”, the protease stability score was 0.785. Sequence “DEDAVRVMETYMKIYETGNPEELNRLVDPNVKFNIGDQRIKGREHARKFWRKILQHSRVELRRLDVHTRPNRVEARAEVVVNHNGKPKNFQFTFSAHLHNGRIKEVTIKHSK” has a protease stability score of 1.34. Work on “DEDAYRKLDTFKKVEEKGDTDRLRKLADPNVEIQVGDRQIRGMHHFAKDVHDKKRHIDIDVHIDEYDVDGNKIQIHAHNKQHVNGKPFNFTVVMWVRIHNGSIKKMKYRIDPDQLRKIRR” yielded a protease stability score of 0.227. “DEDDANQVERDLRENDWDQLVRNFDEDARIQIGDYTIHGREDYKRWLEEVEKQVDKVEIKQVDIHGNNIVVDYRQQVNGQHVRAIMVITMDNGKIKEMHVDVRSEDAKRAYERIFR” gave a protease stability score of 0.525. Work on “DEDDANRVAQEILRALIEGDEKKVADLVDEDARISIGDHKFRGREQIREAVREFTEEVDHVKLESITADNGHAEATAILDINGKNQRVTFHVEVHNGRAKEVSMTSG” yielded a protease stability score of 1.05. Sequence “DEDDARKVRKLAKTNDWDELVHRFRDDVRFKVGNQRYSGRENAQTVAQELRKKVDHIRITSLHSTPGHVVLHMTMVVNGRKITVVIFIRMDNGRAVSFSLRVRDEEVKKHITQAFS” has a protease stability score of 0.141. Work on “DEDDERQMEEVVETGDPDRMAENADPNVRVDVGDHEVHGRERAQKMWQQEKKQVDHLEVKEVHTENGRINADVVVVVNGRSLQVTVVASMHNGKIEYYSIQFTSEKQKKQWHDANG” yielded a protease stability score of -0.048. “DEDDKQEFAKSYNEVWKTGNEENAKRLFDENARMRVGDKEFHGHESIAHFLAEQVKRIDHIEFKQVDVQGEDMVFVFHFTVDGRKVHMTVKLRIHNGRIKDATINPQDIKKMEK” showed a protease stability score of 0.603. “DEDDKQRHAEKYAKLWQEGNEDELQKQMDPNAKVVVGEKRLKGREQIKKWLEEWRKHADEVQVISVSVEGERLVIRFRANINGKTYHDTQTMIYDNGEIQDVRFDPKWLHDLKR” showed a protease stability score of 0.625. Work on “DEDDLERKDEEFQRLMKTGNFEELAQQADKDVRVQIGDKQLHGRRQIKKYQEEMQRKADHFDVKRVDIQGDTVDAVIENRHNGHHQVVRIQVNMHNGTIKEVTIHSS” yielded a protease stability score of -0.02. With “DEDDLETLLKKIIDAMRNGDPKQMMRLVDENAKLVVGDKTVHGREEVSKWMKELRRQVDDNDYKDFHVQGDKARIDHFVNINGTNTERVIDIEVHNGRVKRLVYHEK” the protease stability score was 0.159. “DEDDLQRKVERINSALQTNDEDEFVRQLDEDAKISVGDKTVHGQEKAREWVQDLRRTVDHIRVDHVKVHNGRAHVTMKAVVNGKNVEITMQMTLHNGKVKEMRIDPEDVEKLEG” showed a protease stability score of 0.807. Sequence “DEDDLRHVEKVLRENDEDTFAEMADEDVSADIGDKTLTGREEVKKMLQKLHKQADHVEIKSVTNRGDNVKVDMVMNYNGRNLRFSRSAEFTNGRIKHVSIRVTSEEDQDVLQRLLD” has a protease stability score of 0.811. With “DEDDLRRAQKDLQQNDFHKIARDADENVRVRIGDTTYHGRETLISFLKEMQDRADHVSIKHISVEGDKITADFEMQVDGKTDTFDLFIVVHNGRYQHVHFEVRSEDFSKFMREIES” the protease stability score was 1.02. For “DEDDLRRIIKEFQKALKTGDTDEIRRQIDPNAHARYGDKEVHGREQLLSRLDELMNNVDHMQIDDLTFRGDKATVDFVMNHNGHERRHILHMVVHNGTIKSAHLDDS”, the protease stability score was 1.01. “DEDDLRRLAEDFVRVLKTGDEDRLSELFDPNAKVSVGDHEYHGSENIVRALVEFARRVDELEVNSITIENGRVKIDAFATVNGKRVSVIIEIQYHNGRAKYVEFKYTSEEENRRFKN” gave a protease stability score of 0.466. Sequence “DEDDLRRRANEVAEVLHDNDEESMKSLVDPNADIEIGDKRLHGRDDMEKWMQERKRRVDHLTLHSFNVHNGRVDIDARVEVNGQQERYRMVVEFHNGVAKHINFTST” has a protease stability score of 0.569. “DEDDLVRQMVDRAEEAAQTGDEKKFANLFDPNARFRYGDKDVHGREEWEKRLDEERKRADRLHIKFDSVRVHGDKVDLHFTWRVVVNGESSERVVIIHAVKQGDRIVAKYVREG” showed a protease stability score of 0.611. For “DEDDMRKWEELMRAFETGDEKKATELVDPNATFKVGDKTYHGREHFIKDLFTKVKEIHIQMRIRDIQQSGDFAVVHLVKSNHNNGKPNSDVAVVLVRMDNGKLKYVQETKDQ”, the protease stability score was 0.587. “DEDDMRRLEQLFRDIQTGNPERVRTLVDKNAELRVGDKRIKGREDVHRSVKKNRDEIRYSIDRLSADVKGDQVEMTVTAQKEHNGEPRSFKFTMTAKFRNGKLQHLDVHEEK” gave a protease stability score of -0.297. In the case of “DEDDNKIAKEWYKAIQRGDPDRVKQLVDPNVKIRIGDKDIRGRENFATEVERMRDEIEVVFKVKDMKDQGDKANVEYEYQTQSNGRPRTKSQTVNVSMHNGHVKHVNVRDDQ”, the protease stability score is reported as -0.301. In the case of “DEDDNRKMHKLMETGDFEKIAHHADPNAHAKYGDKTVTGKEELKSVFTKFNRAVDHVQVQDVRIRGDKVTLDAEVNVNGQTVQVTVSARAHNGQIKHFKIQARDEQIQRDIKDALE”, the protease stability score is reported as 0.845. Work on “DEDDQERKLRKIAKNITKGDKTSLLKMVDKDAKASVGDKTVEGDNQLKRVMEERTRRIDHLDLKDVKVTGNTLVVHYVIHHNGKNKHQVAFVVLDNGRIKSMSFHDG” yielded a protease stability score of -0.08. For “DEDDQKLITEFLKALERGDPDRLLENADPNASARVGDKDVHGMHNAATDWVRERNSMDVTYDSVEIHVHNGRATIHLDAQFDFNGKPWRDTMTVEIVIRNGKIKDIIFRFDEQQLRDITK”, the protease stability score was 0.714. For “DEDDQKNFSQMLNALDTGDEKRVVELADPNAKVEYGDKTYSGMEKYAHDRAKQRKEWRYHQTIDKVNVKNGRVEIHMKANFKINGQPRSMRFSVTVEAHNGKLKNLDFRFSEEDRKKLEG”, the protease stability score was -0.024.
